Patent US8796227B2, “Peptides for inhibiting chemokine binding to chemokine receptors” (Biokine Therapeutics Ltd., priority 2002, dated 2014)
Entries after “also recorded” stand apart in the source; their conditions may differ. Bridges are numbered along the chain shown (N, C = ends). Where no end group is shown, it is not given here.

What was measured:
Human MCP-1 = molecular target: T1, Human MCP-1 (Homo sapiens, UniProt P13500); assay: ELISA analysis of the synthetic chemokine-binding peptide; settings: chemokine-coated wells, specific binding = at least two fold of binding to control proteins (BSA, Actin, Fibronectin)
T1 construct: purchased PeproTech, Inc. 300-04
Procedure: (§1) Recombinant chemokines were ordered from PeproTech, Inc. (Rocky Hill, N.J., USA). Human SDF-1α (Cat. No. 300-28A), human MIG (Cat. No. 300-26) and human IL-8, (72 amino acids) (Cat. No. 200-08M), belong to the alpha-chemokines (C-X-C) family. Human MCP-1 (MCAF) (Cat. No. 300-04) and human Eotaxin (Cat No. 300-21) belong to the beta-chemokines (C-C family). All chemokines were prepared according to the company recommendations.
(§2) Peptides were synthesized in the Weizmann Institute of Science, Rehovot, Israel, in order to perform tests for characterization of their influence on the biological activity of the chemokines. The format of the various synthesized peptides was as follows: The cyclic peptides, ACX7CGGGSK-biotin-G and the linear peptides, X12GGGSK-biotin-G. The peptides were biotinylated on their C-termini; the biotin will serve as a detector during the following experiments. Each synthetic peptide was dissolved to concentration of 1 mg/ml (˜0.6 mM) in 4% DMSO (Dimethyl Sulphoxide, Sigma, Cat. # D-2650).
(§3) NUNC-Immuno™ MaxiSorp™ plates (Cat. No. 4-42404) were coated with the appropriate chemokine (0.1 ml/well, 0.1-1.0 μg/ml in 0.1 M NaHCO3, pH 8.6), overnight at 4° C. The plates were then blocked with 0.2 ml/well of blocking buffer (5 mg/ml BSA in 0.1 NaHCO3). Control wells were treated with blocking buffer alone, with no addition of target protein (chemokine). The plates were washed 6 times with PBST (0.1% Tween 20 in PBS), followed by incubation for 45 minutes at room temperature with 10-fold serial dilutions of individual synthetic peptides (10pg-10 μg) with 1% BSA (PBST-BSA)/well. After the plates were washed 6 times with PBST, the bound peptides were probed by HRP-SA Conjugate, diluted 1:10,000 to 1:20,000 in PBST-BSA, 0.1 ml/well for 45 minutes at room temperature. The target-bound synthetic peptides probed with HRP-SA were quantified by DAKO TMB one-step substrate system, followed by the addition of stop solution, HCl—H2SO4 mixture (0.1 ml/well) (1N HCl, 3N H2SO4). The results were analyzed by ELISA reader at OD450.
(§4) The present invention identifies chemokine-binding peptides with biological activity. The binding specificities of the various peptides to the chemokines were determined by screening against BSA, Actin and Fibronectin-coated wells as negative controls in parallel experiments. The binding level of the peptides to the various chemokines, which reached at least two fold of the binding level to the control proteins, was considered a specific binding.
(§5) The specific binding of the peptides was detected by screening methodology, using ELISA, as described in “Materials and Methods”, employing microplates coated with the various chemokines to be checked. The binding specificities of the various peptides to the various chemokines were determined by screening against BSA, Actin and Fibronectin-coated wells as negative controls in parallel experiments.
(§6) Again, the specificity of the binding, either to one chemokine or more, was established by comparing binding level with the control binding level to non-related proteins, (shown in the Figure as a broken line).

MIG [1] = molecular target: T2, MIG (Homo sapiens, UniProt Q07325); assay: as above; settings: chemokine-coated wells, specific binding = at least two fold of binding to control proteins (BSA, Actin, Fibronectin)
T2 construct: purchased PeproTech, Inc. 300-26
T2 sequence (Q07325 23-125): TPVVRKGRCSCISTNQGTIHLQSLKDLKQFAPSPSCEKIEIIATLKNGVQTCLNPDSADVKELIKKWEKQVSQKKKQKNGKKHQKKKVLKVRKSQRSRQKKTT
Procedure: as §1, §2, §3, §4, §5, §6

MIG [2] = molecular target: T2, MIG; assay: Biovalidation: laminar flow assay, chemokine and VCAM-1 activated adhesion of T cells; format: cell-based; settings: for Reduction of the activity of MIG: T cell adhesion under flow
Procedure: 50 ml blood was added to 10 ml Dextran (Dextran T-500 6% w/v) in PBS (phosphate buffer saline), and 7 ml citrate buffer (25 g citrate, 8 g citric acid in 500 ml PBS). The solution was incubated for 30 min at 25° C. 10 ml Ficoll 1077 (Sigma) was added to the bottom of the tube. The tube was then centrifuged at 2,000 rpm for 30 min, at 18° C., (with the brake mode of the centrifuge off). The interphase was collected and washed twice with 8 ml PBS-5% FCS (fetal calf serum), followed by centrifugation at 1,400 rpm, for 5 min, at 18° C. The cells were re-suspended in PBS-5% FCS at a concentration less than 10^8/ml. 2 ml of the cell solution were applied and incubated for 45 min at 25° C. on a Perspex Nylon wool column, which was pre-soaked with PBS-5% FCS. Each column was washed with 8 ml PBS-5% FCS and the cells (T-cells and erythrocytes) were eluted by 50 ml of 5 mM EDTA in PBS. A red pellet was obtained by centrifugation at 1,400 rpm, at 4° C., for 5 min, with the brake on. In order to perform lysis of the erythrocytes, the red pellet was re-suspended in 5 ml lysis-buffer (155 mM NH4Cl, 10 mM KHCO3, 0.1 mM EDTA, X0.1PBS) for 4 min, followed by immediate addition of 50 ml of PBS-EDTA.
Following centrifugation at 1,400 rpm, at 4° C., for 5 min with brake on, the pellet was washed again with 50 ml PBS-EDTA and re-centrifuged under the same conditions. A white pellet was obtained and re-suspended in RPMI/10% FCS/L-glutamine/sodium pyruvate/antibiotics at a concentration of 3^X10^6 cells/ml. The cells were incubated for 2 h at 37° C., followed by collection of the non-adherent cells. The cells were ready for use in experiments after overnight incubation at 37° C. […]
Laminar flow assays were performed as follows. Polystyrene plates (B.D) were coated with soluble VCAM-1 at 10 μg/ml in the presence of 2 μg/ml HSA carrier. The plates were washed three times with PBS and blocked with HSA (20 μg/ml in PBS) for 2 hrs at room temperature. Alternatively, washed plates were coated with 10 μg/ml MIG chemokine in PBS for 30 min at room temperature, before being blocked with HSA. The plates were assembled as the lower wall of a parallel wall flow chamber and mounted on the stage of an inverted microscope. The peptide, as described previously, (10 μg/ml) was allowed to settle on the substrate coated chamber wall for 10 min, at 37° C. and then washed. T cells (5×10^6/ml, purity >98%) were suspended in binding buffer, perfused into the chamber and allowed to settle on the substrate coated chamber wall for 1 min, at 37° C. Flow was initiated and increased in 2 to 2.5 fold increments every 5 sec. generating controlled shear stresses on the wall. Cells were visualized in a 20× objective of an inverted phase-contrast Diaphot Microscope (Nikon, Japan) and photographed with a long integration LIS-700 CCD video camera (Applitech; Holon, Israel), connected to a video recorder (AG-6730 S-VHS, Panasonic, Japan). The number of adherent cells resisting detachment by the elevated shear forces was determined after each interval by analysis of videotaped cell images, and was expressed as the percent of originally settled cells. All adhesion experiments were performed at least three times on multiple test fields.

SDF-1α = molecular target: T3, SDF-1α (Homo sapiens, UniProt P48061); assay: ELISA analysis of the synthetic chemokine-binding peptide; settings: chemokine-coated wells, specific binding = at least two fold of binding to control proteins (BSA, Actin, Fibronectin)
T3 construct: purchased PeproTech, Inc. 300-28A
Procedure: as §1, §2, §3, §4, §5, §6

[3] = system: chemokines MCP-1, SDF-1α, MIG, Eotaxin and IL-8; assay: ELISA binding to the panel of chemokines (chemokine not singled out); set-up: species or system human; settings: five chemokines tested, control binding level = one fold
Procedure: as §1, §2, §3
The present invention identifies chemokine-binding peptides with biological activity. The binding specificities of the various peptides to the chemokines were determined by screening against BSA, Actin and Fibronectin-coated wells as negative controls in parallel experiments. […]
The specific binding of the peptides was detected by screening methodology, using ELISA, as described in “Materials and Methods”, employing microplates coated with the various chemokines to be checked. The binding specificities of the various peptides to the various chemokines were determined by screening against BSA, Actin and Fibronectin-coated wells as negative controls in parallel experiments. […]

Eotaxin = molecular target: T4, Eotaxin (Homo sapiens, UniProt P51671); assay: ELISA analysis of the synthetic chemokine-binding peptide; settings: chemokine-coated wells, specific binding = at least two fold of binding to control proteins (BSA, Actin, Fibronectin)
T4 construct: purchased PeproTech, Inc. 300-21
Procedure: as §1, §2, §3, §4, §5, §6

human IL-8 = molecular target: T5, human IL-8 (Homo sapiens, UniProt P10145); assay: as above; settings: chemokine-coated wells, specific binding = at least two fold of binding to control proteins (BSA, Actin, Fibronectin)
T5 construct: human IL-8, (72 amino acids) (Cat. No. 200-08M); purchased PeproTech, Inc. 200-08M
T5 sequence (P10145 28-99 limits assumed): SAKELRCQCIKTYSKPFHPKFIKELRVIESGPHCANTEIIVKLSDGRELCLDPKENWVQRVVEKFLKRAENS
Procedure: as §1, §2, §3, §4, §5, §6

IL-8 = molecular target: T6, IL-8 (Homo sapiens, UniProt P10145); assay: Biovalidation: laminar flow assay, chemokine and VCAM-1 activated adhesion of T cells; format: cell-based; settings: VCAM-1
T6 construct: human IL-8, (72 amino acids) (Cat. No. 200-08M); purchased PeproTech, Inc. 200-08M
T6 sequence (P10145 28-99): T5 sequence (P10145 28-99 limits assumed)

T1 sequence (P13500 24-99): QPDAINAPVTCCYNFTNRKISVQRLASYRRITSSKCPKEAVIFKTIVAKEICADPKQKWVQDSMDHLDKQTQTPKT
T4 sequence (P51671 24-97): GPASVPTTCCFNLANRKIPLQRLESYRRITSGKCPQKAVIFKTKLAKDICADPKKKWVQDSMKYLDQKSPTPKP
T3 sequence (P48061 22-89 limits assumed): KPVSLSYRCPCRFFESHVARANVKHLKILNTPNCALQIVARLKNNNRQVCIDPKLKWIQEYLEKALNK

ACHASLKHRC [BKT-P48]
Bound chemokines (at least): MCP-1 (Human MCP-1): MCP-1

AHSLKSITNHGL [BKT-P44]
Bound chemokines (at least): MCP-1 (Human MCP-1): MCP-1

CAHLSPHKC [BKT-P50]
Bound chemokines (at least): MIG (MIG [1]): MIG

CDIPWRNEC [BKT-P10]
Bound chemokines (at least): MIG (MIG [1]): does not bind | Percentage of arrested cells (MIG [2]; MIG plus peptide (FIG. 4), MIG alone about 25-30%, control = VCAM-1 alone): 25%-30% | Reduction of the activity of MIG (MIG [2]; VCAM-1): no influence on the activity of MIG

CHHNLSWEC [BKT-P56]
Bound chemokines (at least): SDF-1α (SDF-1α): SDF-1α

CKESATYFC (ACKESATYFCGGGS-{K(biotin)-Gly}; disulfide 2-10 (inferred)) [BKT-P18]
Binding to the various chemokines [3]: no binding to the various chemokines

ESDLTHALHWLG [BKT-P51]
Bound chemokines (at least): MCP-1 (Human MCP-1): MCP-1

FSMDDPERVRSP [BKT-P9]
Binding to the various chemokines [3]: bind specifically to a single chemokine; also recorded: specifically bind to one specific chemokine

GDFNSGHHTTTR [BKT-P27]
Bound chemokines (at least): MCP-1 (Human MCP-1): MCP-1

GVHKHFYSRWLG [BKT-P33]
Bound chemokines (at least): Eotaxin (Eotaxin): Eotaxin

HHFHLPKLRPPV [BKT-P45]
Bound chemokines (at least): MCP-1 (Human MCP-1): MCP-1 | Bound chemokines (at least): MIG (MIG [1]): MIG | Bound chemokines (at least): IL-8 (human IL-8): IL-8 | Level of Antagonistic Effect (MIG [2]; Chemokine checked MIG, T cells, VCAM-1, peptide 10 μg/ml): + (+ 20%) | Reduction of the activity of MIG (MIG [2]; VCAM-1): about 20% | Level of Antagonistic Effect (IL-8; Chemokine checked IL-8, T cells, peptide 10 μg/ml): +++ (+++ 100%) | Abolishment of the activity of IL-8 (IL-8; T cell adhesion under flow): 100%

HHTWDTRIWQAF [BKT-P55]
Bound chemokines (at least): MCP-1 (Human MCP-1): MCP-1

HPTTPFIHMPNF (HPTTPIHMPNF) [BKT-P54]
Bound chemokines (at least): MIG (MIG [1]): MIG
